This is an account of results in US20240269235A1 (Gilead, published 2024).

One may read the Kd as a measure of binding affinity in units of concentration. Read a low Kd as higher affinity.

Test [1] concerns the target T1, IL-2Rβγ heterodimer, custom biotinylated Fc fusion protein (human IL-2Rβ 27-240-Fc-FLAG / human IL-2Rγ … (human, site-specific biotinylation at the AviTag)).
T1 construct: Extracellular regions fused to IgG1 knob-in-hole Fc subunits with tags; also called IL-2 receptor βγ heterodimer; Fc-IL-2Rβγ
Kind of test: SPR (Biacore), CM4 chip, biotinylated receptor on neutravidin. On the procedure: Fc-IL-2 variant binding data was collected on a Biacore platform using a CM4 chip. Neutravidin was immobilized using standard amine coupling methods and used to capture biotinylated receptors. The source, preparation and immobilization of biotinylated IL-2Rα and IL-2Rβγ heterodimer was as described in Example 4. Proleukin was used as a comparator. Fc-IL-2 variants and Proleukin were injected at various concentrations over these surfaces. Kinetic data obtained from these injections was used to extract kₒₙ and koff to calculate KD (KD=Koff/kₒₙ).

Test [2] concerns the target T2, trimeric murine IL-2 receptor (IL-2Rα, IL-2Rβ, and IL-2Rγ) on CTLL-2 cells (murine, UniProt P01590 22-268; P16297 27-539; P34902 23-369).
T2 sequence (looked up) 1: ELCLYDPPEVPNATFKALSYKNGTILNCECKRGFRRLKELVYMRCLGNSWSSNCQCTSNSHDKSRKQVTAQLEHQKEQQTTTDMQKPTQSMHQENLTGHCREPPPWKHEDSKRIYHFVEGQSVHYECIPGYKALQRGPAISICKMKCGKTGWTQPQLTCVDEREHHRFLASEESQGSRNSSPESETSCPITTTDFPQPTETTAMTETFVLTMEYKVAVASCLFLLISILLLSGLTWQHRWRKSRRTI
T2 sequence (looked up) 2: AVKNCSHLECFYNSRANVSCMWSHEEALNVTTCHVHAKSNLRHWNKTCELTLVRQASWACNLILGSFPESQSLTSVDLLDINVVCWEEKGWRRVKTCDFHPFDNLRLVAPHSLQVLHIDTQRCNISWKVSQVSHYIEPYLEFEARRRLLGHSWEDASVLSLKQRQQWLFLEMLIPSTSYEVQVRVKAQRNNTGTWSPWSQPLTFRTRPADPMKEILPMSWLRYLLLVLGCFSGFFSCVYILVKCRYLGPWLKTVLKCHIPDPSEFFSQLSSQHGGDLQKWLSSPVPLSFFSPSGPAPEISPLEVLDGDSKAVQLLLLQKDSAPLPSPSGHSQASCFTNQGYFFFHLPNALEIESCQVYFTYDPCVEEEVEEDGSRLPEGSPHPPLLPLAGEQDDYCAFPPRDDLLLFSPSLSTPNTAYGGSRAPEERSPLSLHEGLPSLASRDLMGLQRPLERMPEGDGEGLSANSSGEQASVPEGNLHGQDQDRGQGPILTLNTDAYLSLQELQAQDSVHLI
T2 sequence (looked up) 3: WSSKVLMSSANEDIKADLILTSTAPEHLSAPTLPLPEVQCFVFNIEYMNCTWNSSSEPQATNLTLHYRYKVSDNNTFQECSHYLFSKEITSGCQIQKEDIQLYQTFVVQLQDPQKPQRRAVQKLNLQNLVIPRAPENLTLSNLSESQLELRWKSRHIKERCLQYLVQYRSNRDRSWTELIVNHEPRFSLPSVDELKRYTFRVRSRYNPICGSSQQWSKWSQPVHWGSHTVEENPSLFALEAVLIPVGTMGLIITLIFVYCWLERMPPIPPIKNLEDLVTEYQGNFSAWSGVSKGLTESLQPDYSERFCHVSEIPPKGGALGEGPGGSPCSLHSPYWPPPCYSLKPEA
Kind of test: cell-based or functional assay.

T1 sequence (chain, as listed by the source limits assumed): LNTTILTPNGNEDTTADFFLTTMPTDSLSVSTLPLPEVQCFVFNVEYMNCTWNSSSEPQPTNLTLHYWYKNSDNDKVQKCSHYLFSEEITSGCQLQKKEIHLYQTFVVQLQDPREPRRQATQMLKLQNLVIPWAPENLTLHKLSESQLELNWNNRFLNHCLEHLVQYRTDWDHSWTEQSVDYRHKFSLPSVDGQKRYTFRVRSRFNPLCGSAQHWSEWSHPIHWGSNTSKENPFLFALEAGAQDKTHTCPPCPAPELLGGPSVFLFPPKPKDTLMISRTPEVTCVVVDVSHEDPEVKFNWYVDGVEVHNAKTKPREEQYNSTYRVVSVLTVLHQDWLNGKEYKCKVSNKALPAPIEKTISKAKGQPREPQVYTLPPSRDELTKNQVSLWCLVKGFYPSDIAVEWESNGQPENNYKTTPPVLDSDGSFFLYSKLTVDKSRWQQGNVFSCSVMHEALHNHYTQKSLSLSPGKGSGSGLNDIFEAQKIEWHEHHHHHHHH

B1: Fc-IL-2v heterodimer 97.46 (hIL-2v_Δ1-5_Y45G_E62A_C125S) (Fc fusion)
chain 1: ESKYGPPCPPCPAPEAAGGPSVFLFPPKPKDTLMISRTPEVTCVVVDVSQEDPEVQFNWYVDGVEVHNAKTKPREEQFNSTYRVVSVLTVLHQDWLNGKEYKCKVSNKGLPSSIEKTISKAKGQPREPQVYTLPPSQEEMTKNQVSLWCLVKGFYPSDIAVEWESNGQPENNYKTTPPVLDSDGSFFLYSRLTVDKSRWQEGNVFSCSVMHEALHNHYTQKSLSLSLGGGGGSGGGGSGGGGSGGGGSSTKKTQLQLEHLLLDLQMILNGINNYKNPKLTRMLTFKFGMPKKATELKHLQCLEEALKPLEEVLNLAQSKNFHLRPRDLISNINVIVLELKGSETTFMCEYADETATIVEFLNRWITFSQSIISTLT
chain 2: ESKYGPPCPPCPAPEAAGGPSVFLFPPKPKDTLMISRTPEVTCVVVDVSQEDPEVQFNWYVDGVEVHNAKTKPREEQFNSTYRVVSVLTVLHQDWLNGKEYKCKVSNKGLPSSIEKTISKAKGQPREPQVYTLPPSQEEMTKNQVSLSCAVKGFYPSDIAVEWESNGQPENNYKTTPPVLDSDGSFFLVSRLTVDKSRWQEGNVFSCSVMHEALHNRFTQKSLSLSLGK
notes: hIgG4 knob-in-hole Fc heterodimer, one IL-2v on the knob chain
In test [1], B1 had a Kd of 0.065 nM. Moreover, the “STAT5 activation of CTLL-2 cells, EC50” value in test [2] stood at 3.4 nM.

B2: Fc-IL-2v heterodimer 106.46 (hIL-2v_Δ1-5_R38G_F42A_Y45G_C125S) (Fc fusion)
chain 1: ESKYGPPCPPCPAPEAAGGPSVFLFPPKPKDTLMISRTPEVTCVVVDVSQEDPEVQFNWYVDGVEVHNAKTKPREEQFNSTYRVVSVLTVLHQDWLNGKEYKCKVSNKGLPSSIEKTISKAKGQPREPQVYTLPPSQEEMTKNQVSLWCLVKGFYPSDIAVEWESNGQPENNYKTTPPVLDSDGSFFLYSRLTVDKSRWQEGNVFSCSVMHEALHNHYTQKSLSLSLGGGGGSGGGGSGGGGSGGGGSSTKKTQLQLEHLLLDLQMILNGINNYKNPKLTGMLTAKFGMPKKATELKHLQCLEEELKPLEEVLNLAQSKNFHLRPRDLISNINVIVLELKGSETTFMCEYADETATIVEFLNRWITFSQSIISTLT
chain 2: ESKYGPPCPPCPAPEAAGGPSVFLFPPKPKDTLMISRTPEVTCVVVDVSQEDPEVQFNWYVDGVEVHNAKTKPREEQFNSTYRVVSVLTVLHQDWLNGKEYKCKVSNKGLPSSIEKTISKAKGQPREPQVYTLPPSQEEMTKNQVSLSCAVKGFYPSDIAVEWESNGQPENNYKTTPPVLDSDGSFFLVSRLTVDKSRWQEGNVFSCSVMHEALHNRFTQKSLSLSLGK
notes: as for B1
Molecule B2 gave a Kd in test [1] of 0.06 nM. The “STAT5 activation of CTLL-2 cells, EC50” value in test [2] turned out to be 19.6 nM.

B3: Fc-IL-2v heterodimer 104.46 (hIL-2v_Δ1-5_R38G_F42A_C125S) (Fc fusion)
chain 1: ESKYGPPCPPCPAPEAAGGPSVFLFPPKPKDTLMISRTPEVTCVVVDVSQEDPEVQFNWYVDGVEVHNAKTKPREEQFNSTYRVVSVLTVLHQDWLNGKEYKCKVSNKGLPSSIEKTISKAKGQPREPQVYTLPPSQEEMTKNQVSLWCLVKGFYPSDIAVEWESNGQPENNYKTTPPVLDSDGSFFLYSRLTVDKSRWQEGNVFSCSVMHEALHNHYTQKSLSLSLGGGGGSGGGGSGGGGSGGGGSSTKKTQLQLEHLLLDLQMILNGINNYKNPKLTGMLTAKFYMPKKATELKHLQCLEEELKPLEEVLNLAQSKNFHLRPRDLISNINVIVLELKGSETTFMCEYADETATIVEFLNRWITFSQSIISTLT
chain 2: ESKYGPPCPPCPAPEAAGGPSVFLFPPKPKDTLMISRTPEVTCVVVDVSQEDPEVQFNWYVDGVEVHNAKTKPREEQFNSTYRVVSVLTVLHQDWLNGKEYKCKVSNKGLPSSIEKTISKAKGQPREPQVYTLPPSQEEMTKNQVSLSCAVKGFYPSDIAVEWESNGQPENNYKTTPPVLDSDGSFFLVSRLTVDKSRWQEGNVFSCSVMHEALHNRFTQKSLSLSLGK
notes: as for B1
In the case of B3, in test [1], binding was put at a Kd of 0.061 nM. The “STAT5 activation of CTLL-2 cells, EC50” value in test [2] was 1.4 nM.

B4: Fc-IL-2v heterodimer 102.46 (hIL-2v_Δ1-5_Y45G_E61A_E62A_C125S) (Fc fusion)
chain 1: ESKYGPPCPPCPAPEAAGGPSVFLFPPKPKDTLMISRTPEVTCVVVDVSQEDPEVQFNWYVDGVEVHNAKTKPREEQFNSTYRVVSVLTVLHQDWLNGKEYKCKVSNKGLPSSIEKTISKAKGQPREPQVYTLPPSQEEMTKNQVSLWCLVKGFYPSDIAVEWESNGQPENNYKTTPPVLDSDGSFFLYSRLTVDKSRWQEGNVFSCSVMHEALHNHYTQKSLSLSLGGGGGSGGGGSGGGGSGGGGSSTKKTQLQLEHLLLDLQMILNGINNYKNPKLTRMLTFKFGMPKKATELKHLQCLEAALKPLEEVLNLAQSKNFHLRPRDLISNINVIVLELKGSETTFMCEYADETATIVEFLNRWITFSQSIISTLT
chain 2: ESKYGPPCPPCPAPEAAGGPSVFLFPPKPKDTLMISRTPEVTCVVVDVSQEDPEVQFNWYVDGVEVHNAKTKPREEQFNSTYRVVSVLTVLHQDWLNGKEYKCKVSNKGLPSSIEKTISKAKGQPREPQVYTLPPSQEEMTKNQVSLSCAVKGFYPSDIAVEWESNGQPENNYKTTPPVLDSDGSFFLVSRLTVDKSRWQEGNVFSCSVMHEALHNRFTQKSLSLSLGK
notes: as for B1
In turn, B4 had an equilibrium dissociation constant (Kd) in test [1] of 0.073 nM. For the same molecule, the “STAT5 activation of CTLL-2 cells, EC50” value in test [2] was determined as 6.1 nM.

B5: Fc-IL-2v heterodimer 100.46 (hIL-2v_Δ1-5_F42A_E61A_C125S) (Fc fusion)
chain 1: ESKYGPPCPPCPAPEAAGGPSVFLFPPKPKDTLMISRTPEVTCVVVDVSQEDPEVQFNWYVDGVEVHNAKTKPREEQFNSTYRVVSVLTVLHQDWLNGKEYKCKVSNKGLPSSIEKTISKAKGQPREPQVYTLPPSQEEMTKNQVSLWCLVKGFYPSDIAVEWESNGQPENNYKTTPPVLDSDGSFFLYSRLTVDKSRWQEGNVFSCSVMHEALHNHYTQKSLSLSLGGGGGSGGGGSGGGGSGGGGSSTKKTQLQLEHLLLDLQMILNGINNYKNPKLTRMLTAKFYMPKKATELKHLQCLEAELKPLEEVLNLAQSKNFHLRPRDLISNINVIVLELKGSETTFMCEYADETATIVEFLNRWITFSQSIISTLT
chain 2: ESKYGPPCPPCPAPEAAGGPSVFLFPPKPKDTLMISRTPEVTCVVVDVSQEDPEVQFNWYVDGVEVHNAKTKPREEQFNSTYRVVSVLTVLHQDWLNGKEYKCKVSNKGLPSSIEKTISKAKGQPREPQVYTLPPSQEEMTKNQVSLSCAVKGFYPSDIAVEWESNGQPENNYKTTPPVLDSDGSFFLVSRLTVDKSRWQEGNVFSCSVMHEALHNRFTQKSLSLSLGK
notes: as for B1
In turn, B5 displayed a Kd in test [1] of 0.061 nM. In test [2], the “STAT5 activation of CTLL-2 cells, EC50” value is 1.6 nM.

B6: Fc-IL-2v heterodimer 101.46 (hIL-2v_Δ1-5_F42A_Y45G_C125S) (Fc fusion)
chain 1: ESKYGPPCPPCPAPEAAGGPSVFLFPPKPKDTLMISRTPEVTCVVVDVSQEDPEVQFNWYVDGVEVHNAKTKPREEQFNSTYRVVSVLTVLHQDWLNGKEYKCKVSNKGLPSSIEKTISKAKGQPREPQVYTLPPSQEEMTKNQVSLWCLVKGFYPSDIAVEWESNGQPENNYKTTPPVLDSDGSFFLYSRLTVDKSRWQEGNVFSCSVMHEALHNHYTQKSLSLSLGGGGGSGGGGSGGGGSGGGGSSTKKTQLQLEHLLLDLQMILNGINNYKNPKLTRMLTAKFGMPKKATELKHLQCLEEELKPLEEVLNLAQSKNFHLRPRDLISNINVIVLELKGSETTFMCEYADETATIVEFLNRWITFSQSIISTLT
chain 2: ESKYGPPCPPCPAPEAAGGPSVFLFPPKPKDTLMISRTPEVTCVVVDVSQEDPEVQFNWYVDGVEVHNAKTKPREEQFNSTYRVVSVLTVLHQDWLNGKEYKCKVSNKGLPSSIEKTISKAKGQPREPQVYTLPPSQEEMTKNQVSLSCAVKGFYPSDIAVEWESNGQPENNYKTTPPVLDSDGSFFLVSRLTVDKSRWQEGNVFSCSVMHEALHNRFTQKSLSLSLGK
notes: as for B1
B6 gave a Kd in test [1] of 0.054 nM. The “STAT5 activation of CTLL-2 cells, EC50” value in test [2] was 7.7 nM.

B7: Fc-IL-2v heterodimer 103.46 (hIL-2v_Δ1-5_E61A_E62A_C125S) (Fc fusion)
chain 1: ESKYGPPCPPCPAPEAAGGPSVFLFPPKPKDTLMISRTPEVTCVVVDVSQEDPEVQFNWYVDGVEVHNAKTKPREEQFNSTYRVVSVLTVLHQDWLNGKEYKCKVSNKGLPSSIEKTISKAKGQPREPQVYTLPPSQEEMTKNQVSLWCLVKGFYPSDIAVEWESNGQPENNYKTTPPVLDSDGSFFLYSRLTVDKSRWQEGNVFSCSVMHEALHNHYTQKSLSLSLGGGGGSGGGGSGGGGSGGGGSSTKKTQLQLEHLLLDLQMILNGINNYKNPKLTRMLTFKFYMPKKATELKHLQCLEAALKPLEEVLNLAQSKNFHLRPRDLISNINVIVLELKGSETTFMCEYADETATIVEFLNRWITFSQSIISTLT
chain 2: ESKYGPPCPPCPAPEAAGGPSVFLFPPKPKDTLMISRTPEVTCVVVDVSQEDPEVQFNWYVDGVEVHNAKTKPREEQFNSTYRVVSVLTVLHQDWLNGKEYKCKVSNKGLPSSIEKTISKAKGQPREPQVYTLPPSQEEMTKNQVSLSCAVKGFYPSDIAVEWESNGQPENNYKTTPPVLDSDGSFFLVSRLTVDKSRWQEGNVFSCSVMHEALHNRFTQKSLSLSLGK
notes: as for B1
B7: the Kd in test [1] worked out at 0.096 nM. The “STAT5 activation of CTLL-2 cells, EC50” value in test [2] is 2.7 nM.
